Data from paper PMC3138255 (The Journal of Biological Chemistry, 2011).
Substitutions are numbered along the chain they refer to. In names and notes the source's numbering stands.

T1: Rnd1 GTPase Y114F (UniProt Q92730 5-200, Y114F)
T1 sequence (looked up): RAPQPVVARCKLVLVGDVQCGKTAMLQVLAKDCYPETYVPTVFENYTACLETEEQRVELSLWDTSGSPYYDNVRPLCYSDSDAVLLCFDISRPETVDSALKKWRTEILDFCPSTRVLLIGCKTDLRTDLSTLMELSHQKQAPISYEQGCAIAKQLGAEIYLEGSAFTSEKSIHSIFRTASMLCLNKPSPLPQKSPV

T2: Rnd1 GTPase (residues 5-200), loaded with GMPPNP (UniProt Q92730 5-200)
T2 sequence (looked up): T1 sequence (looked up) with F110Y

T3: Rnd2 GTPase (residues 1-227), loaded with GMPPNP (UniProt P52198 1-227)
T3 sequence (looked up): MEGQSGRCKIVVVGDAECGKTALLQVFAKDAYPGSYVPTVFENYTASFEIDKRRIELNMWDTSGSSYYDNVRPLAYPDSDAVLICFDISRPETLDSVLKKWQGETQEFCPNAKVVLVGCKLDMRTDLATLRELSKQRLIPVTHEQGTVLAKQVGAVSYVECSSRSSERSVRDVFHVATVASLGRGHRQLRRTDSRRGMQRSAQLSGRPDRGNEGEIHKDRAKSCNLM

B1: plexin-B1 Rho GTPase binding domain (RBD), residues 1746-1852 (domain or fragment, human, UniProt O43157 1746-1852, looked up)
chain: YRPLTLNALLAVGPGAGEAQGVPVKVLDCDTISQAKEKMLDQLYKGVPLTQRPDPRTLDVEWRSGVAGHLILSDEDVTSEVQGLWRRLNTLQHYKVPDGATVALVPC
B2: plexin-B1 RBD L1815Y (domain or fragment)
chain: B1 chain with L70Y
B3: plexin-B1 RBD L1815K (domain or fragment)
chain: B1 chain with L70K
B4: plexin-C1 RBD K1267L (domain or fragment)
chain: TVALNVVFEKIPENESADVCRNISVNVLDCDTIGQAKEKIFQAFLSKNGSPYGLQLNEIGLELQMGTRQLELLDIDSSSVILEDGITKLNTIGHYEISNGSTIKVFKK
B5: plexin-C1 RBD T1264V/R1265V (domain or fragment)
chain: B4 chain with T67V, R68V, L70K
B6: plexin-A2 Rho GTPase binding domain (RBD), residues 1490-1600 (domain or fragment, human, UniProt O75051 1490-1600, looked up)
chain: LIRQQIEYKTLILNCVNPDNENSPEIPVKVLNCDTITQVKEKILDAVYKNVPYSQRPRAVDMDLEWRQGRIARVVLQDEDITTKIEGDWKRLNTLMHYQVSDRSVVALVPK
B7: plexin-D1 RBD Y1618L (domain or fragment)
chain: AKPRNLNVSFQGCGMDSLSVRAMDTDTLTQVKEKILEAFCKNVPYSQWPRAEDVDLEWFASSTQSLILRDLDDTSVVEDGRKKLNTLAHYKIPEGASLAMSLIDKKDNTLGRVKDLDTEKYFHLVL
B8: plexin-D1 Rho GTPase binding domain (RBD), residues 1553-1678 (domain or fragment, human, UniProt Q9Y4D7 1553-1678, looked up)
chain: B7 chain with L66Y
B9: plexin-D1 RBD S1614V/T1615A (domain or fragment)
chain: B7 chain with S62V, T63A, L66Y

Key:
[1] = target: Rnd1 GTPase, wild type, construct of this paper (UniProt Q92730); assay: Isothermal titration calorimetry; settings: pH 7.0, 25 °C, 50 mM NaCl, 4 mM MgCl2, 50 mM phosphate buffer
[2] = target: Rnd1 GTPase as used in the quoted work (ref 39, Hota & Buck 2009) (UniProt Q92730); assay: Not stated in this article; settings: cited from earlier work
[3] = target: Rnd1 GTPase (residues 5-200), loaded with GMPPNP (UniProt Q92730); assay: ITC + SPR
[4] = target: Rnd2 GTPase (residues 1-227), loaded with GMPPNP (UniProt P52198); assay: ITC + SPR
Rnd1 GTPase Y114F = target: T1, Rnd1 GTPase Y114F; assay: ITC
[5] = target: T2, Rnd1 GTPase (residues 5-200), loaded …; assay: ITC
[6] = target: T3, Rnd2 GTPase (residues 1-227), loaded …; assay: ITC
SEC = target: the molecule itself; assay: SEC

Sequence of Rnd1 GTPase, wild type, construct of this paper (Q92730 whole entry): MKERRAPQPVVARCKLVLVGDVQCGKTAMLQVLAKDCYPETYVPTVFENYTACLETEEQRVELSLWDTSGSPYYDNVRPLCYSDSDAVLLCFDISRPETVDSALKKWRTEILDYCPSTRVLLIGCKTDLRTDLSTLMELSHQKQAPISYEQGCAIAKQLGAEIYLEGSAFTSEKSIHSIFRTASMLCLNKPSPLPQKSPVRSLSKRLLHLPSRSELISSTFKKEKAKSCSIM
Sequence of Rnd1 GTPase as used in the quoted work (ref 39, Hota & Buck 2009) (Q92730 whole entry, the tested form may be a part): as the sequence (Q92730 whole entry) above

Molecule | Ka [5] [M⁻¹] | Kd [5] [µM] | dH [5] [kcal/mol] | Ka [6] [M⁻¹] | Kd [6] [µM] | dH [6] [kcal/mol] | also measured
Plexin-B1 Rho GTPase binding domain (RBD), wild type, construct of this paper | – | – | – | – | – | – | Ka [1]: 1.8 10^5 M^-1; Kd [1]: 5.5 µM; ΔG [1]: -7.1 kcal/mol
Plexin-B1 RBD as used in the quoted work (ref 39, Hota & Buck 2009) | – | – | – | – | – | – | Kd ([2]; pH 6.4): ∼3.1 μM; Kd ([2]; pH 6.8): ∼5.5 μM
plexin-C1 Rho GTPase binding domain (RBD), residues 1198-1305 (from UniProt O60486 1198-1305) (domain or fragment) | – | – | – | – | – | – | Kd [3]: > 50 µM; Kd [4]: > 50 µM
B1 | 180000 | 5.5 | -6.7 | 40000 | > 20 | -0.2 | Ka (Rnd1 GTPase Y114F): 180000 M⁻¹; Kd (Rnd1 GTPase Y114F): 5.5 µM; dH (Rnd1 GTPase Y114F): -2.5 kcal/mol
B2 | 70000 | 14.1 | -1.4 | 90000 | 9.8 | -1.6 | –
B3 | – | – | – | 80000 | 20 | -3.2 | –
B4 | 100000 | 10 | -1.9 | 90000 | 11.1 | -0.6 | –
B5 | 360000 | 2.6 | -3.4 | 120000 | 8.3 | -1.5 | –
B6 | 140000 | 7 | -8 | 90000 | 10.7 | -1.2 | stoichiometry N (SEC): 2; Ka (Rnd1 GTPase Y114F): 100000 M⁻¹; Kd (Rnd1 GTPase Y114F): 10 µM; dH (Rnd1 GTPase Y114F): -4.1 kcal/mol
B7 | 190000 | 5.2 | -3.1 | 70000 | 14.2 | -1.6 | –
B8 | – | – | – | 60000 | 16.6 | -0.4 | –
B9 | 50000 | 20 | 1.3 | 130000 | 7.7 | -1.4 | –
